Measured values reported in FireProtDB (doi:10.1093/oxfordjournals.jbchem.a021544).

Settings: Homo sapiens; pH 2.7; Thermal; DSC; glycine 0.05 M; reversible: yes; whole UniProt chain shown

B1: Lysozyme C wild type, P61626 (protein)
chain: MKALIVLGLVLLSVTVQGKVFERCELARTLKRLGMDGYRGISLANWMCLAKWESGYNTRATNYNAGDRSTDYGIFQINSRYWCNDGKTPGAVNACHLSCSALLQDNIADAVACAKRVVRDPQGIRAWVAWRNRCQNRDVRQYVQGCGV
Tm: 64.9 °C
heat capacity change of unfolding: 1.58 kcal/mol/K
unfolding enthalpy (calorimetric): 114 kcal/mol
unfolding enthalpy (van 't Hoff): 120 kcal/mol
